Measurements published in IntAct's records for PubMed 16319069.

B1: 5-hydroxytryptamine receptor 2C (Homo sapiens), P28335 (parent)
chain: MVNLRNAVHSFLVHLIGLLVWQSDISVSPVAAIVTDIFNTSDGGRFKFPDGVQNWPALSIVIIIIMTIGGNILVIMAVSMEKKLHNATNYFLMSLAIADMLVGLLVMPLSLLAILYDYVWPLPRYLCPVWISLDVLFSTASIMHLCAISLDRYVAIRNPIEHSRFNSRTKAIMKIAIVWAISIGVSVPIPVIGLRDEEKVFVNNTTCVLNDPNFVLIGSFVAFFIPLTIMVITYCLTIYVLRRQALMLLHGHTEEPPGLSLDFLKCCKRNTAEEENSANPNQDQNARRRKKKERRPRGTMQAINNERKASKVLGIVFFVFLIMWCPFFITNILSVLCEKSCNQKLMEKLLNVFVWIGYVCSGINPLVYTLFNKIYRRAFSNYLRCNYKVEKKPPVRQIPRVAATALSGRELNVNIYRHTNEPVIEKASDNEPGIEMQVENLELPVNPSSVVSERISSV

Variants of: B1
Conditions: with arrb2_mouse Arrb2, Q91YI4
Chain of arrb2_mouse Arrb2, Q91YI4 (Q91YI4 whole entry): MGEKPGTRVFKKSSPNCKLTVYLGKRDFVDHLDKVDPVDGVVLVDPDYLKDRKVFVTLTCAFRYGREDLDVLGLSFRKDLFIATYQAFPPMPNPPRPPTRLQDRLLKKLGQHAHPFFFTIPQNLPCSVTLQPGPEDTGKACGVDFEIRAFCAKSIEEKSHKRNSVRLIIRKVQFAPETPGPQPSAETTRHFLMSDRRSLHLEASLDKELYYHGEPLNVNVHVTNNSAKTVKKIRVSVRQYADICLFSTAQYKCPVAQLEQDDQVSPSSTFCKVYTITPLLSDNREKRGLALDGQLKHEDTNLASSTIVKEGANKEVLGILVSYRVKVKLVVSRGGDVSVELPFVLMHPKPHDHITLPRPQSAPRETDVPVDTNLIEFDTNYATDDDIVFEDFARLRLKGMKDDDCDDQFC

Variant | effect of a mutation on the interaction
P159A | decreasing interaction
